{
  "source": "paper PMC7337906",
  "biological_target": "T1, Tof1(613-728) minimal;Csm3(48-157) internal_change (Chaetomium thermophilum;Chaetomium thermophilum) (UniProt G0S825+Q2H3R6)",
  "T1 sequence 1": "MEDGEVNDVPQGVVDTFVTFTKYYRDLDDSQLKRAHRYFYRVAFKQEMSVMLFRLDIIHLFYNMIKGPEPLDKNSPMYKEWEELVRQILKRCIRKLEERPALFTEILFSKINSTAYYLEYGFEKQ",
  "T1 sequence 2": "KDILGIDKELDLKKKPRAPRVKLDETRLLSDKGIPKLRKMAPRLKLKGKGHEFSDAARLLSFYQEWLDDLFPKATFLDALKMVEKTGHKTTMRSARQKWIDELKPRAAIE",
  "test": "EMSA",
  "details": "HBS-200 (20 mM HEPES pH 7.5, 200 mM NaCl, 1 mM TCEP) + 10% glycerol, 50 nM DNA, 30 min on ice; 6% polyacrylamide tris-glycine gel",
  "data": [
    {"sequence": "GTAGTTTGTACTGGTGACGA (double strand) [dsDNA 20 bp]", "values": [
      {"measurement": "binding signal (fold weaker than P1+P2)", "value": 2}
    ]}
  ]
}
